In the MegaScale stability set (Tsuboyama et al. 2023):

B1: HEEH_KT_rd6_0007 (parent)
chain: SIEEEIKKAEEAKEKGKTFIHGDFVATTEELLDELLKRLRKKL

Variants of: B1
Test: folding stability dG (cDNA display proteolysis); higher = more stable
Conditions: PBS, room temperature

Folding stability dG [kcal/mol], by site and new letter:
K17: R 1.13, S 1.18, T 1.43, V 1.43, W 1.84, Y 1.71
T18: A 1.3, D 0.988, E 1.12, F 1.3, G 1.23, H 1.16, I 1.67, K 1.1, L 1.07, M 1.32, N 1.07, P 1.32, Q 1.28, R 1.09, S 1.21, V 1.48, W 1.76, Y 1.37
F19: A 0.757, D 0.713, E 0.58, G 0.793, H 0.937, I 0.902, K 0.811, L 0.751, M 0.895, N 0.745, P 0.637, Q 0.715, R 0.752, S 0.618, T 0.77, V 0.861, W 0.964, Y 1.49
I20: A 1.03, C 2.04, D 0.774, E 0.927, F 0.891, G 0.637, H 0.961, K 0.994, L 0.842, M 0.979, N 0.801, P 0.732, Q 1.27, R 0.918, S 0.913, T 1.25, V 1.27, W 1.13, Y 1.02
H21: A 0.946, D 0.707, E 0.742, F 1.52, G 0.81, I 1.03, K 0.812, L 1.29, M 1.08, N 0.77, P 0.759, Q 1.03, R 0.838, S 1.39, T 0.971, V 1.04, W 1.78, Y 1.76
G22: A 0.902, D 0.958, E 1.12, F 1.14, H 1.02, I 1.45, K 0.822, L 1.2, M 1.15, N 0.979, P 0.931, Q 0.893, R 0.665, S 0.873, T 0.814, V 1.09, W 1.53, Y 1.23
D23: A 1.26, C 1.91, E 1.16, F 1.48, G 1.16, H 1.02, I 1.52, K 1.06, L 1.31, M 1.26, N 1.4, P 0.958, Q 1.14, R 0.773, S 1.36, T 1.36, V 1.38, W 1.64, Y 1.3
F24: A 0.492, C 1.49, D 0.649, E 0.854, G 0.708, H 0.746, I 1.03, K 0.243, L 0.965, M 0.889, N 0.509, P 0.489, Q 0.726, R -0.367, S 0.627, T 0.846, V 0.78, W 1.22, Y 1.02
V25: A 1.1, C 1.94, D 0.749, E 1.05, F 1.31, G 0.704, H 1.28, I 1.41, K 0.938, L 1.11, M 1.18, N 0.974, P 0.68, Q 1.07, R 0.704, S 0.912, T 0.907, W 1.39, Y 1.23
A26: C 1.24, D 0.604, E 0.506, F 1.2, G 0.7, H 0.502, I 1.27, K 0.515, L 1.03, M 0.854, N 0.638, P 0.691, Q 0.685
